Experiments:
Format in all cases: biochemical, Arabidopsis thaliana
[1] = substrate: OC[C@H]1O[C@H](OC[C@H]2O[C@H](OC[C@H]3O[C@H](O[C@]4(CO)O[C@H](CO)[C@@H](O)[C@@H]4O)[C@H](O)[C@@H](O)[C@@H]3O)[C@H](O)[C@@H](O)[C@H]2O)[C@H](O)[C@@H](O)[C@H]1O; test: HPAEC-PAD, raffinose formation; settings: galactosylhydrolase reaction, stachyose alone, range 50 to 1,200 μM, 25 mM K-phosphate pH 7, 25°C, 60 min
[2] = substrate: OC[C@H]1O[C@H](OC[C@H]2O[C@H](O[C@]3(CO)O[C@H](CO)[C@@H](O)[C@@H]3O)[C@H](O)[C@@H](O)[C@@H]2O)[C@H](O)[C@@H](O)[C@H]1O; test: HPAEC-PAD, stachyose formation; settings: stachyose synthase reaction, galactosyl acceptor, co-substrate galactinol (standard assay 100 μM), 25 mM K-phosphate pH 7, 25°C, 60 min
[3] = substrate: OC[C@H]1O[C@H](O[C@@H]2[C@@H](O)[C@H](O)[C@@H](O)[C@H](O)[C@@H]2O)[C@H](O)[C@@H](O)[C@H]1O; test: HPAEC-PAD, stachyose formation; settings: stachyose synthase reaction, galactosyl donor, co-substrate raffinose (standard assay 400 μM), range 50 to 1,200 μM, 25 mM K-phosphate pH 7, 25°C, 60 min

B1: AtRS4 (AtSTS, AtStaS, At4g01970) (Arabidopsis thaliana) (protein)
chain: MAPLHESLSSINDVIESKPLFVPITKPILQPNSFNLSEGSLCAKDSTPILFDVPQNVTFTPFSSHSISTDAPLPILLRVQANAHKGGFLGFTKESPSDRLTNSLGRFEDREFLSLFRFKMWWSTAWIGKSGSDLQAETQWVMLKIPEIDSYVAIIPTIEGAFRASLTPGEKGNVLICAESGSTKVKESSFKSIAYIHICDNPYNLMKEAFSALRVHMNTFKLLEEKKLPKIVDKFGWCTWDACYLTVDPATIWTGVKEFEDGGVCPKFVIIDDGWQSINFDGDELDKDAENLVLGGEQMTARLTSFKECKKFRNYKGGSFITSDASHFNPLKPKMLIYKATERIQAIILRRKLVKESGEQDLTELDEKIKILSEELNAMFDEVEKEESLGSDDVSGSGMAAFTKDLRLRFKSLDDIYVWHALCGAWNGVRPETMMDLKAKVAPFELSPSLGATMADLAVDKVVEAGIGLVHPSKAHEFYDSMHSYLASVGVTGAKIDVFQTLESLAEEHGGRVELAKAYYDGLTESMIKNFNGTDVIASMQQCNEFFFLATKQISIGRVGDDFWWQDPYGDPQGVYWLQGVHMIHCSYNSIWMGQMIQPDWDMFQSDHVCAEYHAASRAICGGPVYLSDHLGKASHNFDLIKKLAFFDGTIPRCVHYALPTRDSLFKNPLFDKESILKIFNFNKFGGVIGTFNCQGAGWSPEEHRFKGYKECYTTVSGTVHVSDIEWDQNPEAAGSQVTYTGDYLVYKQQSEEILFMNSKSEAMKITLEPSAFDLLSFVPVTELVSSGVRFAPLGLINMFNCVGTVQDMKVTGDNSIRVDVKGEGRFMAYSSSAPVKCYLNDKEAEFKWEEETGKLSFFVPWVEESGGISHLSFTF
With B1 the Km [1] was 1,059 ± 269.3 μM, the Km [2] was 259.2 ± 21.15 µM and the Km [3] was 1,170 ± 246.8 μM.
